Assay results: the DeepSol protein solubility set

Assay: soluble on expression in E. coli; label from the status in PepcDB or PDB records

Sequence	soluble on expression in E. coli
MGVERIKAAFENGKKAFIPYVMGGDGGLEILKERIRFLDEAGASIVEIGIPFSDPVADGPTIQRAGKRALDSGVTVKGIFQALIEVRKEVQIPFVLMTYLNPVLAFGKERFIENCMEAGVDGIIVPDLPYEEQDIIAPLLREANIALIPLVTVTSPIERIKKITSESEGFVYAVTVAGVTGVRQNFKDEIHSYLEKVKSHTHLPVVAGFGISTKEHVEEMVTICDGVVVGSKVIELLENEKREEICEFIQATKQKEEA	not soluble
GPGSMDDGFSRILLAWFSNNPSFGKTIPVTAGQAVLNTLYIRYVVNKSVSFEDILAYQFRWVSANDAATEVFNKFTDGKESMTSEQLGKFLRDVQRSDVTDRQIVEKFKYCFGGGIHKYNFISYNGSVLTNNAIDPARTSDVWQDMTQSFTHYMVSCARIEAEEDLKRAAADGTRALVLNINKASNGKLMVGSCELQTILEGVKKNGFATNTYPIVLCLSPGTPMPTPVQDEVAKMINDILESAVAEGLMFEGAMINDPKFSPGALRNKVLVMSHQSRLKPFIGFLVADMNKDGLGVRVTDVMEGTPASKGGVLKDDWLTHINGIPIQNKQHLRETLARLKAGDEFTVRRENLHDVKVVVGGAIDPQDTTASASLSSITFFKYSDSNDPKPWDTERIPASSLATTKLTRKDLLTHFAFCTVNSAEASTELPDAEGKAASLGIQFVDVDNSERCLPWTRGRFSDNGRCGYILKTDIDSAKSPELSLSVIGGPRLLNCSPLTSMNVTIHGAGTARVNGSQVSFTDCNQATIAVVQMTFEANGAERTFTSAFCPGLLRPGYRALPSVPFGEERASKKQIHGIYCFIK	not soluble
MQARVKWVEGLTFLGESASGHQILMDGNSGDKAPSPMEMVLMAAGGCSAIDVVSILQKGRQDVVDCEVKLTSERREADTRLFTHINLHFIVTGRDLKDAAVARAVDLSAEKYCSVALMLEKAVNITHSYEVVAA	soluble
GALPSHNKASFTDEEDEFILDVVRKNPTRRTTHTLYDEISHYVPNHTGNSIRHRFRVYLSKRLEYVYEVDKFGKLVRDDDGNLIKTKVLPPSIKRKFSADEDYTLAIAVKKQFYRDLFQIDPDTGRSLITDEDTPTAIARRNMTMDPNHVPGSEPNFAAYRTQSRRGPIAREFFKHFAEEHAAHTENAWRDRFRKFLLAYGIDDYISYYEAEKAQNREPEPMKNLTNRPKRPGVPTPGNYNSAAKR	soluble
MTKHPPNRRGISFEVGAQLEARDRLKNWYPAHIEDIDYEEGKVLIHFKRWNHRYDEWFCWDSPYLRPLEKIQLRKEGLHEEDGSSEFQINEQVLACWSDCRFYPAKVTAVNKDGTYTVKFYDGVVQTVKHIHVKAFSKDQNIVGNARPKETDHKSLSSSPDKREKFKEQRKATVNVKKDKEDKPLKTEKRPKQPDKEGKLICSEKGKVSEKSLPKNEKEDKENISENDREYSGDAQKKTSQTPFHSSYCCGFKLSNFATQLEHHHHHH	soluble
MADPIDNNSGKYTVQRFPAVADPADPGYSRCTTWVQAVSHGFHQQRRDDEYLAKTLTAYQTDKRELTGVYVNGSVPDHSLGADVPVATYATMRKALNIGFGRQLEAHLVTAVTVRGTHRRNGILRGMITADLEAAKDDGLAMAALTASEASIYGRFGFGVATFERSIKVDTGPRFRLRGLPQGTVEVADPSVLLDVAPQVFERLQRLSPGSIDRQEYYRLVASGSIGHDGKPDTSVRCALHYDLSGSLDGYVSYRFKGWDHKPYTMEIVDLVAASNAAYLDLWRFLGSIDLIDEVTWVEAPVDDPLAWALEDPRCIEASEIRDMLWLRILDTPAALQARSFPVAGRLVLEVTDSLGLAGGTWVLESDGGAAAVVKEAAGETPDLSLDAADLGSIYLGAVSPVTLAAAGRIQEKTPGAALLAQQLFAVERSAHCLTHF	soluble
MRTMKAPSMGATVEVLSFLQPVTRELVHRSSIAEVFVTDGVRTGENAFSVGAQWPRDHALYHPDENGLNDPLLFAETLRQAHFYGAHTYFGVPVGSRFIGQDVSFEITDPTALRVGAAPLAVVLNGTWTEERDRRGRPAGARLDVTLTVDGRPCGRGHTRGLMLDDRRYRLLRGRPAASGEVSPPRPAPDARIARPNRVGRLRWKDCVLERDRPDQDWRLRVDRDHAVLFDHPTDHVPLMVMLEGFRQLGHLTVHEASRRTLGDRAFALAGLSLDCAAFGELGETILLSLEKGPSEGVPTEECALRVAAHQGERLLARADMTWKCVGSRAPWSRFASWLEHHHHHH	not soluble
MEQETLEQVHLTEDGGVVKTILRKGEGGEENAPKKGNEVTVHYVGKLESSGKVFDSSRERNVPFKFHLGQGEVIKGWDICVASMTKNEKCSVRLDSKYGYGEEGCGESIPGNSVLIFEIELISFRE	soluble
MNDLTLSPIAIIHTPYKEKFSVPRQPNLVEDGVGIVELLPPYNSPEAVRGLEQFSHLWLIFQMDQIQQGKWQPTVRPPRLGGNQRVGVFASRATHRPNPLGMSKVELRQVECINGNIFLHLGAVDLVDGTPIFDIKPYIAYADSEPNAQSSFAQEKLPVKMTVEFTEQAKSAVKKREEKRPHLSRFIRQVLEQDPRPAYQQGKPSDRIYGMSLYEFNVKWRIKAGTVNCVEVIEIEKDKLEHHHHHH	soluble
MAQFVYTMHRVGKVVPPKRHILKNISLSFFPGAKIGVLGLNGAGKSTLLRIMAGIDKDIEGEARPQPDIKIGYLPQEPQLNPEHTVRESIEEAVSEVVNALKRLDEVYALYADPDADFDKLAAEQGRLEEIIQAHDGHNLNVQLERAADALRLPDWDAKIANLSGGERRRVALCRLLLEKPDMLLLDEPTNHLDAESVAWLERFLHDFEGTVVAITHDRYFLDNVAGWILELDRGEGIPWEGNYSSWLEQKDQRLAQEASQEAARRKSIEKELEWVRQGTKGRQSKGKARLARFEELNSTEYQKRNETNELFIPPGPRLGDKVLEVSNLRKSYGDRLLIDDLSFSIPKGAIVGIIGPNGAGKSTLFRMISGQEQPDSGTITLGETVKLASVDQFRDSMDNSKTVWEEVSGGLDIMKIGNTEMPSRAYVGRFNFKGVDQGKRVGELSGGERGRLHLAKLLQVGGNMLLLDEPTNDLDIETLRALENALLEFPGCAMVISHDRWFLDRIATHILDYQDEGKVEFFEGNFTEYEEYKKRTLGADALEPKRIKYKRIAK	soluble
MEKKVLLTGFDPFGGETVNPSWEAVKRLNGAAEGPASIVSEQVPTVFYKSLAVLREAIKKHQPDIIICVGQAGGRMQITPERVAINLNEARIPDNEGNQPVGEDISQGGPAAYWTGLPIKRIVEEIKKEGIPAAVSYTAGTFVCNHLFYGLMDEISRHHPHIRGGFIHIPYIPEQTLQKSAPSLSLDHITKALKIAAVTAAVHEDDIETGGGELH	soluble
MGSDKIHHHHHHMAIDLLNIARTGVLASQSQLGVTSNNIANANTVGYHRQVATQTTLDSQRLGSSFYGTGTYVSDVKRIYNDYAARELRIGQTTLSAAEASYGKLSELDQIFSQIGKVVPQSLTDLFAGLNSLADLPADLGIRSSTLNDAKQLANSLNQMQSTLNGQLNQTNDQITGMTKRINEISTELANLNLELMKSPNQDPILLDKQDALVQELSQYAQVNVIPLENGAKSIMLGGSIMLVSGEVAMSMSTATGDPFPNELQLMSSIGSQSVKADPSKLGGQLGALFEYRDQTLVPASLELDQLALGVADSFNKLQAQGFDLNGQVGANMFKDINDPLMSLGRVGGFTDNTGNATLGVNIDDTSALTGGSYELSFTAPSTYELRDTQRARLLRLP	not soluble
MSFATISVIGLGYIGLPTAAAFASRQKQVIGVDINQHAVDTINRGEIHIVEPDLASVVKTAVEGGFLRASTTPVEADAWLIAVPTPFKGDHEPDMTYVESAARSIAPVLKKGALVILESTSPVGSTEKMAEWLAEMRPDLTFPQQVGEQADVNIAYCPERVLPGQVMVELIKNDRVIGGMTPVCSARASELYKIFLEGECVVTNSRTAEMCKLTENSFRDVNIAFANELSLICADQGINVWELIRLANRHPRVNILQPGPGVGGHCIAVDPWFIVAQNPQQARLIRTAREVNDHKPFWVIDQVKAAVADCLAATDKRASELKIACFGLAFKPNIDDLRESPAMEIAELIAQWHSGETLVVEPNIHQLPKKLTGLCTLAQLDEALATADVLVMLVDHSQFKVINGDNVHQQYVVDAKGVWR	not soluble
MSLKLLAIDSATQAATCAVMDDDKLLGEITFNYKKQHSVILMSMIDDMLNTVNLKVEDLDGFVVSKGPGSFTGLRIGMSIVKGLSEGSKKPFVSVSSLDALAYNMAYTPGIICPVLDALRDNVYTALYTFEGNSLKRLTEYDAIHITELIELLKGYDSQVTFIGDAVYKFRNFFDENVENVQFAPAHLNLVRSSSLCELGMELLKSGVKDDLITSAPIYIRKSQAEREYEKRTGMSIDDEGHHHHHH	soluble
